Laboratory results: patent publication US20150299332A1 (UNIVERSITY OF TSUKUBA, published 2015)

Biological target: T1, human CD300a-Fc (human, UniProt Q9UGN4 18-180)
T1 construct: extracellular domain; Made from a chimeric cDNA as in Document 25; not shown: human IgG1 Fc
T1 sequence (looked up): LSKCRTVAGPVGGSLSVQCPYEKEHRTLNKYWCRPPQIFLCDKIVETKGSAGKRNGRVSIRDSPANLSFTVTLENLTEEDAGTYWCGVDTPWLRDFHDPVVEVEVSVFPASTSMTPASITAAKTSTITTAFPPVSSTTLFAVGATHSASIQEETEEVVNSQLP
Experiment: flow cytometry binding inhibition: human CD300a-Fc on apoptotic Jurkat cells with TX49 (binding of TX49 to CD300a-Fc shown by blocking)
Protocol: First, Jurkat cells (human T-cell line) were suspended in RPMI 1640 medium, and the resulting medium was irradiated with UV for 60 minutes to prepare apoptotic Jurkat cells.
Further, cytometry analysis was carried out under the same test conditions as in Reference Example 1B except that the “Jurkat cell-derived apoptotic cells” were used as apoptotic cells instead of the apoptotic cells derived from wild-type mouse thymocytes; “human CD300a-Fc” was used instead of the “mouse CD300a-Fc”; and “TX49” or “control human IgG1” was used instead of “TX41” (results: FIG. 2E “TX49” or “HuIgG1”). “TX49” is an anti-human CD300a antibody (monoclonal antibody), and blocks binding of CD300a to the ligand.

binding result: binds
B1: Human CD300a monoclonal antibody TX49 (mouse IgG1) (antibody, V domains shown)
VH: EVQLQQSGAELVKPGASVKLSCKASGYTFTSYWMQWVKQRPGQGLEWIGEIDPSDSYTNYNQKFKGKATLTVDTSSSTTYMQLSSLTSEDSAVYYCARWGMAYGTSSYWYFDVWGTGTTVTVSS
VL: DCDIQMTQTTSSLSASLGDRVTISCRASQDISNYLNWYQQKPDGTVKLLIYYTSRLHSGVPSRFSGSGSGTDYSLTISNLEQEDIATYFCQQGNTLPWTFGGGTKLEIKR
notes: also called anti-human CD300a monoclonal antibody; anti-human CD300a antibody
